The chains are these.
B1: Hz1 (humanized antibody made with SEQ ID NO 28 and SEQ ID NO 29) (antibody, V domains shown)
VH: EVQLVESGGGLVKPGGSLRLSCAASGIDLNRYSLTWVRQAPGKGLEWVGIVGGSGVTYYANWAKGRFTISRDSAKNSLYLQMNSLRAEDTAVYFCARGSDRSAYAPDIWGPGTLVTVSS
VL: DIQMTQSPSSLSASVGDRVTINCQSSQSIYSNNYLAWYQQKPGKPPKLLLYQASKLASGVPSRFSGSGSGTDFTLTISSLQPEDVATYYCLGVYDDDADNAFGGGTELEIKR
notes: Whole IgG from vector pCEP6-WPRE with an Fc part
B2: Hz2 (humanized antibody made with SEQ ID NO 30 and SEQ ID NO 31) (antibody, V domains shown)
VH: EVQLVESGGGLVQPGGSLRLSCAVSGIDLNRYSLTWIRQAPGKGLEWVAIVGGSGVTYYANWAKGRFTISRDDSKNTLYLQMNSLRAEDTAVYYCARGSDRSAYAPDIWGQGTLVTVSS
VL: DIQLTQSPSSLSASVGDRVTITCQSSQSIYSNNYLAWYQQKPGKAPKLLLYQASKLASGVPSRFSGSGSGTDFTLTISSLQPEDFATYYCLGVYDDDADNAFGQGTKVEIKR
notes: as for B1
B3: Hz2-F (antibody with SEQ ID NO 32 and SEQ ID NO 31) (antibody, human IgG1, L234A L235A, V domains shown)
VH: EVQLVESGGGLVQPGGSLRLSCAVSGIDLNRYSLTWIRQAPGKGLEWVAIVGGSGVTYYANWAKGRFTISRDDSKNTLYLQMNSLRAEDTAVYYCARGSDRSAYAPDIWGQGTLVTVSS
VL: DIQLTQSPSSLSASVGDRVTITCQSSQSIYSNNYLAWYQQKPGKAPKLLLYQASKLASGVPSRFSGSGSGTDFTLTISSLQPEDFATYYCLGVYDDDADNAFGQGTKVEIKR
notes: copies: 2 + 2
B4: RIgG1 (rabbit antibody made with SEQ ID NO 24 and SEQ ID NO 25) (antibody, V domains shown)
VH: QSVEESGGRLVTPGTPLTLTCTVSGIDLNRYSLTWVRQAPGKGLEWIGIVGGSGVTYYANWTKGRFTISKTSTTVDLKMTSLTTEDTATYFCARGSDRSAYAPDIWGPGTLVTISS
VL: ELDMTQTPSSVSAAVGGTVTINCQSSQSVYSNNYLAWYQQKPGQPPKLLLYQASKLASGVSSRFSGSGSGTHFTLTISGVQCDDAATYYCLGVYDDDADNAFGGGTELEILR
notes: Converted from scFv to whole IgG in vector pCEP6-WPRE, which carries an Fc part; The ELISA detected it with anti-hIgG-Fc; also called 2-19 (IgG form)
B5: Lu007 (SEQ ID NO 33, SEQ ID NO 34) (antibody, V domains shown)
VH: EVQLVESGGGLVQPGGSLRLSCAASGYDFTHYGMNWIRQAPGKGLEWVGWINTYTGEPTYAADFKRRFTFSLDTSKSTVYLQMNSLRAEDTAVYYCAKYPHYYGTSHWYFDVWGQGTLVTVSS
VL: DIQLTQSPSSLSASVGDRVTITCSASQDISNYLNWYQQKPGKAPKVLIYFTSSLHSGVPSRFSGSGSGTDFTLTISSLQPEDFATYYCQQYSTVPWTFGQGTKVEIKR
notes: Tested as a purified whole antibody, detected with anti-hIgG-Fc; also called variant ranibizumab; variant Lucentis

The target in the assay is T1, recombinant human VEGF165 (Sino biological) (human, UniProt P15692-4 27-191).
T1 construct: Sino Biological VEGF165 was used in the Octet assay
T1 sequence (P15692 other isoform, or with tags, fused parts or gaps limits assumed): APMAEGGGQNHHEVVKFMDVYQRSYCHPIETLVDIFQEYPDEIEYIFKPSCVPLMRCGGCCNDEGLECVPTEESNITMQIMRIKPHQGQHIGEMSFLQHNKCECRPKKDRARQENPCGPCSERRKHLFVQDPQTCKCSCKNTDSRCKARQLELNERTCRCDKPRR
Put plainly: Octet red96E BLI, VEGF165 amine-coupled on AR2G sensor, antibody as analyte, 30 C.
Take B1: the Kd was determined as 4.71 pM, the koff amounted to 3.22e-06 s⁻¹ and the kon was 685000 M⁻¹ s⁻¹.
Turning to B2, the Kd was 1.93 pM, the off-rate constant (koff) was found to be 9.73e-07 s⁻¹ and the kon was determined as 505000 M⁻¹ s⁻¹.
The like results for B3 were, in that order, 3.98 pM, 3.08e-06 s⁻¹ and 775000 M⁻¹ s⁻¹.
For the molecule B4, the Kd amounted to 3.98 pM, the koff turned out to be 3.08e-06 s⁻¹ and the kon turned out to be 775000 M⁻¹ s⁻¹.
The matching figures for B5: 12.2 pM, 2.89e-06 s⁻¹ and 237000 M⁻¹ s⁻¹.

These data come from patent KR20220001106A (dated 2022).
